The Kd is the free concentration of one partner at which half of the binding sites on the other are occupied at equilibrium, for simple one-to-one binding. By koff is commonly meant a measure of how fast the partners let go of each other. As a reminder, the kon is the second-order rate constant of association.

These results are taken from patent US6395275 (Scripps Research, dated 2002).

Like-named read-outs stand apart in the source and are kept apart here.

The target of test [1] is T1, recombinant gp120 of HIV-1 strain IIIb (HIV-1 strain IIIb, UniProt P04578 33-511).
T1 construct: domain: gp120; also called IIIb-derived gp120; gp 120 (IIIB strain)
The experiment in a line: SPR BIAcore, gp120 on chip (summary table).

Test [2] concerns the target T1, recombinant gp120 of HIV-1 strain IIIb. The experiment in a line: SPR BIAcore, gp120 on chip.
From the text: In the assay, the gp120 glycoprotein, isolated from both MN (AgMed, Cambridge, Mass.) and IIIb (American Bio-Technologies) strains of HIV-1 were coated onto gold chips. […] As the mass of the gold chips increases due to the binding of the Fabs to the ligand, the refractive index of the chips increases indicating a coordinate increase in the increase of the mass. Measurements of the "on" rate are made in addition to the "off" rates, the latter of which occurs as the Fabs begin to dissociate from the ligand and the mass coordinately decreases, thereby allowing a measurement of the change of the refractive index. Briefly, the sensor chip was activated for immobilization with N-hydroxysuccinimide an N-ethyl-N'-(3-diethyl aminopropyl) carbodiimide. The proteins, MN-derived or IIIb-derived gp120, were coupled to the surface by injection of 50 ul of a 50 ug/ml sample. Excess activated esters were quenched with 15 ul ethanolamine, 1 M pH 8.5. Typically, 4000 resonance units were immobilized. Binding of Fab fragments to immobilized gp120 was studied by injection of Fab in a range of concentrations (0.5 to 10 ug/ml) at a flow rate of 5 ul/minute. The association was monitored as the increase in resonance units per unit time. Dissociation measurements were acquired following the end of the association phase but with a flow rate of 50 ul/minute. The binding surface was regenerated with HCl, 1M NaCl, pH 3 and remained active for 20–40 measurements. […] Equilibrium association and dissociation constants were deduced from the rate constants.
The target is the same in test [3]. The experiment in a line: SPR BIAcore, gp120 on chip. The source holds these as a separate data set.
The target is the same in test [4]. The experiment in a line: SPR BIAcore, gp120 on chip. This is another data set of the same source. (Surface plasmon resonance follows binding to a sensor surface in real time, without labels.)
From the text: As the mass of the gold chips increases due to the binding of the Fabs to the ligand, the refractive index of the chips increases indicating a coordinate increase in the increase of the mass. Measurements of the "on" rate are made in addition to the "off" rates, the latter of which occurs as the Fabs begin to dissociate from the ligand and the mass coordinately decreases, thereby allowing a measurement of the change of the refractive index. Briefly, the sensor chip was activated for immobilization with N-hydroxysuccinimide an N-ethyl-N'-(3-diethyl aminopropyl) carbodiimide. The proteins, MN-derived or IIIb-derived gp120, were coupled to the surface by injection of 50 ul of a 50 ug/ml sample. Excess activated esters were quenched with 15 ul ethanolamine, 1 M pH 8.5. Typically, 4000 resonance units were immobilized. Binding of Fab fragments to immobilized gp120 was studied by injection of Fab in a range of concentrations (0.5 to 10 ug/ml) at a flow rate of 5 ul/minute. The association was monitored as the increase in resonance units per unit time. Dissociation measurements were acquired following the end of the association phase but with a flow rate of 50 ul/minute. The binding surface was regenerated with HCl, 1M NaCl, pH 3 and remained active for 20–40 measurements. […] Equilibrium association and dissociation constants were deduced from the rate constants.
The soluble composite Fabs were then analyzed for binding affinity to gp120 strain IIIB.
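Throughout, for Ka: fab fragments flowed at 0.5 to 10 ug/ml over immobilized gp120, resonance units tracked during association and dissociation, equilibrium constants derived from the rate constants.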

B1: Fab QA1 (Fab, V domains shown)
VH: LEQSGAEVKKPGASVKVSCQASGYRFSNFTVHWVRQAPGQRFEWMGWINPYNGNKEFSAKFQDRVTFTADTSANTAYMELRSLRSADTAVYYCARVGEWGWDDSPQDNYYMDVWGKGTTVIVSS
VL: ELTQSPGTLSLSPGERATFSCRSSHQLDGSRVAWYQHKPGQAPRLVIHGVSNRASGISDRFSGSGSGTDFTLTITRVEPEDFALYYCQVYGWSQYTFGQGTKLERKR
With B1, the Kd in test [1] stood at 0.51 nM. Besides, in test [2], the “Fold Increase of Mutant Kd Compared to MT4 Kd” value (“Fold Increase” for short) is 12.2 fold and the Kd turned out to be 0.51 nM.

B2: composite Fab H33/L42-17 (Fab, V domains shown)
VH: LEQSGAEVKKPGASVKVSCQASGYRFSHFTLHWVRQAPGQRFEWHGWINPYNGNKEFSAKFQDRVTFTADTSANTAYMELRSLRSADTAVYYCARVGEWGWEMFRYDNYYMDVWGKGTTVIVSS
VL: ELTQSPGTLSLSPGERATFSCRSSHQLDGSRVAWYQHKPGQAPRLVIHGVSNRASGISDRFSGSGSGTDFTLTITRVEPEDFALYYCQQYGWPFYTFGQGTKLERKR
On to B2, for which the Kd in test [1] was found to be 0.183 nM. In addition, in test [3], the koff came out at 1.78e-05 s⁻¹ and the kon was 98400 M⁻¹ s⁻¹. In test [4], the “Fold Increase” value was 34.4 fold, the Ka was 5.46e+09 M⁻¹ and the Kd amounted to 0.183 nM.

B3: composite Fab H103/L42-4 (Fab, V domains shown)
VH: LEQSGAEVKKPGASVKVSCQASGYRFSHFTLHWVRQAPGQRFEWHGWINPYNGNKEFSAKFQDRVTFTADTSANTAYMELRSLRSADTAVYYCARVGEWGWHQRRYDNYYMDVWGKGTTVIVSS
VL: ELTQSPGTLSLSPGERATFSCRSSHQLDGSRVAWYQHKPGQAPRLVIHGVSNRASGISDRFSGSGSGTDFTLTITRVEPEDFALYYCQQYGWPFYTFGQGTKLERKR
Consider B3, for which, in test [1], the Kd was 0.113 nM. Moreover, in test [3], the dissociation rate constant (koff) was 9.41e-06 s⁻¹ and the on-rate (kon) turned out to be 81800 M⁻¹ s⁻¹. Besides, in test [4], the “Fold Increase” value was 55.8 fold, the Ka worked out at 8.88e+09 M⁻¹ and the Kd was found to be 0.113 nM.

B4: composite Fab H33/LH-11 (Fab, V domains shown)
VH: LEQSGAEVKKPGASVKVSCQASGYRFSHFTLHWVRQAPGQRFEWHGWINPYNGNKEFSAKFQDRVTFTADTSANTAYMELRSLRSADTAVYYCARVGEWGWEMFRYDNYYMDVWGKGTTVIVSS
VL: ELTQSPGTLSLSPGERATFSCRSSHQLDGSRVAWYQHKPGQAPRLVIHGVSNRASGISDRFSGSGSGTDFTLTITRVEPEDFALYYCQTYGRGHYTFGQGTKLERKR
For B4, the Kd in test [1] was found to be 0.0738 nM. In addition, in test [3], the off-rate (koff) was 5.45e-06 s⁻¹ and the kon came to 73200 M⁻¹ s⁻¹. Moreover, in test [4], the “Fold Increase” value is 85.4 fold, the Ka came to 1.36e+10 M⁻¹ and the Kd worked out at 0.0738 nM.

B5: composite Fab 4H/L42-1 (Fab, V domains shown)
VH: LEQSGAEVKKPGASVKVSCQASGYRFSNFVIHWVRQAPGQRFEWMGWINPYNGNKEFSAKFQDRVTFTADTSANTAYMELRSLRSADTAVYYCARVGPYSWDDSPQDNYYMDVWGKGTTVIVSS
VL: ELTQSPGTLSLSPGERATFSCRSSHQLDGSRVAWYQHKPGQAPRLVIHGVSNRASGISDRFSGSGSGTDFTLTITRVEPEDFALYYCQQYGWPFYTFGQGTKLERKR
Turning to B5, in test [3], the off-rate (koff) came out at 0.000615 s⁻¹ and the association rate constant (kon) is 296000 M⁻¹ s⁻¹. Further, in test [4], the “Fold Increase” value was found to be 3.02 fold, the Ka is 4.81e+08 M⁻¹ and the Kd came out at 2.08 nM.

B6: Fab QA11 (Fab, V domains shown)
VH: LEQSGAEVKKPGASVKVSCQASGYRFSNFTVHWVRQAPGQRFEWMGWINPYNGNKEFSAKFQDRVTFTADTSANTAYMELRSLRSADTAVYYCARVGEWGWDDSPQDNYYMDVWGKGTTVIVSS
VL: ELTQSPGTLSLSPGERATFSCRSSHQLDGSRVAWYQHKPGQAPRLVIHGVSNRASGISDRFSGSGSGTDFTLTITRVEPEDFALYYCQTYGRGHYTFGQGTKLERKR
notes: also called LH (its light chain)
Turning to B6, the dissociation constant Kd in test [1] came out at 0.067 nM. Moreover, in test [2], the “Fold Increase” value was determined as 94.4 fold and the dissociation constant (Kd) was determined as 0.067 nM.

B7: Fab QA4 (Fab, V domains shown)
VH: LEQSGAEVKKPGASVKVSCQASGYRFSNFTVHWVRQAPGQRFEWMGWINPYNGNKEFSAKFQDRVTFTADTSANTAYMELRSLRSADTAVYYCARVGEWGWDDSPQDNYYMDVWGKGTTVIVSS
VL: ELTQSPGTLSLSPGERATFSCRSSHQLDGSRVAWYQHKPGQAPRLVIHGVSNRASGISDRFSGSGSGTDFTLTITRVEPEDFALYYCQSYGGRDYTFGQGTKLERKR
Turning to B7, the Kd in test [1] and in test [2] was 0.5 nM throughout. In addition, in test [2], the “Fold Increase” value came to 12.6 fold.

B8: Fab QA8 (Fab, V domains shown)
VH: LEQSGAEVKKPGASVKVSCQASGYRFSNFTVHWVRQAPGQRFEWMGWINPYNGNKEFSAKFQDRVTFTADTSANTAYMELRSLRSADTAVYYCARVGEWGWDDSPQDNYYMDVWGKGTTVIVSS
VL: ELTQSPGTLSLSPGERATFSCRSSHQLDGSRVAWYQHKPGQAPRLVIHGVSNRASGISDRFSGSGSGTDFTLTITRVEPEDFALYYCQQYGDSLYTFGQGTKLERKR
B8: the dissociation constant (Kd) in test [1] came out at 0.44 nM. Besides, in test [2], the “Fold Increase” value is 14.3 fold and the Kd came to 0.44 nM.

B9: Fab QA9 (Fab, V domains shown)
VH: LEQSGAEVKKPGASVKVSCQASGYRFSNFTVHWVRQAPGQRFEWMGWINPYNGNKEFSAKFQDRVTFTADTSANTAYMELRSLRSADTAVYYCARVGEWGWDDSPQDNYYMDVWGKGTTVIVSS
VL: ELTQSPGTLSLSPGERATFSCRSSHQLDGSRVAWYQHKPGQAPRLVIHGVSNRASGISDRFSGSGSGTDFTLTITRVEPEDFALYYCQMYGGFTYTFGQGTKLERKR
With B9, the Kd in test [1] was 0.61 nM. Also, in test [2], the “Fold Increase” value is 10.3 fold and the dissociation constant Kd was determined as 0.61 nM.

B10: composite Fab H31/4L-14 (Fab, V domains shown)
VH: LEQSGAEVKKPGASVKVSCQASGYRFSHFTVHWVRQAPGQRFEWHGWINPYNGNKEFSAKFQDRVTFTADTSANTAYMELRSLRSADTAVYYCARVGEWGWEMFRYDNYYMDVWGKGTTVIVSS
VL: ELTQSPGTLSLSPGERATFSCRSSHSIRSRRVAWYQHKPGQAPRLVIHGVSNRASGISDRFSGSGSGTDFTLTITRVEPEDFALYYCQVYGASSYTFGQGTKLERKR
With B10, the Kd in test [1] was found to be 0.022 nM. Further, in test [3], the off-rate constant (koff) came to 3.39e-06 s⁻¹ and the kon is 153000 M⁻¹ s⁻¹. Further, in test [4], the “Fold Increase” value was determined as 284 fold, the Ka worked out at 4.51e+10 M⁻¹ and the Kd is 0.0222 nM.

B11: Fab QA12 (Fab, V domains shown)
VH: LEQSGAEVKKPGASVKVSCQASGYRFSNFTVHWVRQAPGQRFEWMGWINPYNGNKEFSAKFQDRVTFTADTSANTAYMELRSLRSADTAVYYCARVGEWGWDDSPQDNYYMDVWGKGTTVIVSS
VL: ELTQSPGTLSLSPGERATFSCRSSHQLDGSRVAWYQHKPGQAPRLVIHGVSNRASGISDRFSGSGSGTDFTLTITRVEPEDFALYYCQTYGRGIYTFGQGTKLERKR
B11: in test [1], the Kd was determined as 0.13 nM. In addition, in test [2], the “Fold Increase” value was 48.6 fold and the Kd turned out to be 0.13 nM.

B12: Fab QA5 (Fab, V domains shown)
VH: LEQSGAEVKKPGASVKVSCQASGYRFSNFTVHWVRQAPGQRFEWMGWINPYNGNKEFSAKFQDRVTFTADTSANTAYMELRSLRSADTAVYYCARVGEWGWDDSPQDNYYMDVWGKGTTVIVSS
VL: ELTQSPGTLSLSPGERATFSCRSSHQLDGSRVAWYQHKPGQAPRLVIHGVSNRASGISDRFSGSGSGTDFTLTITRVEPEDFALYYCQTYGWSGYTFGQGTKLERKR
Take B12: in test [1], the Kd amounted to 0.46 nM. In test [2], the “Fold Increase” value is 13.7 fold and the dissociation constant Kd came to 0.46 nM.

B13: Fab QA10 (Fab, V domains shown)
VH: LEQSGAEVKKPGASVKVSCQASGYRFSNFTVHWVRQAPGQRFEWMGWINPYNGNKEFSAKFQDRVTFTADTSANTAYMELRSLRSADTAVYYCARVGEWGWDDSPQDNYYMDVWGKGTTVIVSS
VL: ELTQSPGTLSLSPGERATFSCRSSHQLDGSRVAWYQHKPGQAPRLVIHGVSNRASGISDRFSGSGSGTDFTLTITRVEPEDFALYYCQTYGRGSYTFGQGTKLERKR
Turning to B13, the Kd in test [1] is 0.074 nM. In addition, in test [2], the “Fold Increase” value came to 85.9 fold and the Kd was 0.074 nM.

B14: Fab QA2 (Fab, V domains shown)
VH: LEQSGAEVKKPGASVKVSCQASGYRFSNFTVHWVRQAPGQRFEWMGWINPYNGNKEFSAKFQDRVTFTADTSANTAYMELRSLRSADTAVYYCARVGEWGWDDSPQDNYYMDVWGKGTTVIVSS
VL: ELTQSPGTLSLSPGERATFSCRSSHQLDGSRVAWYQHKPGQAPRLVIHGVSNRASGISDRFSGSGSGTDFTLTITRVEPEDFALYYCQLYGRGNYTFGQGTKLERKR
As for B14, the Kd in test [1] and in test [2] was 0.42 nM each time. For the same molecule, the “Fold Increase” value in test [2] is 14.9 fold.

B15: composite Fab H101/4L-1 (Fab, V domains shown)
VH: LEQSGAEVKKPGASVKVSCQASGYRFSHFTVHWVRQAPGQRFEWHGWINPYNGNKEFSAKFQDRVTFTADTSANTAYMELRSLRSADTAVYYCARVGEWGWHQRRYDNYYMDVWGKGTTVIVSS
VL: ELTQSPGTLSLSPGERATFSCRSSHSIRSRRVAWYQHKPGQAPRLVIHGVSNRASGISDRFSGSGSGTDFTLTITRVEPEDFALYYCQVYGASSYTFGQGTKLERKR
Regarding B15, the Kd in test [1] was found to be 0.38 nM. Besides, in test [3], the dissociation rate constant (koff) amounted to 3.39e-05 s⁻¹ and the on-rate constant (kon) is 893000 M⁻¹ s⁻¹. In test [4], the “Fold Increase” value stood at 16.6 fold, the Ka stood at 2.63e+09 M⁻¹ and the Kd amounted to 0.38 nM.
